One assay has as its target T1, human beta-Klotho (KLB) (human, UniProt Q86Z14 53-997).
T1 construct: Bought protein; also called human KLB; β-Klotho
T1 sequence (looked up): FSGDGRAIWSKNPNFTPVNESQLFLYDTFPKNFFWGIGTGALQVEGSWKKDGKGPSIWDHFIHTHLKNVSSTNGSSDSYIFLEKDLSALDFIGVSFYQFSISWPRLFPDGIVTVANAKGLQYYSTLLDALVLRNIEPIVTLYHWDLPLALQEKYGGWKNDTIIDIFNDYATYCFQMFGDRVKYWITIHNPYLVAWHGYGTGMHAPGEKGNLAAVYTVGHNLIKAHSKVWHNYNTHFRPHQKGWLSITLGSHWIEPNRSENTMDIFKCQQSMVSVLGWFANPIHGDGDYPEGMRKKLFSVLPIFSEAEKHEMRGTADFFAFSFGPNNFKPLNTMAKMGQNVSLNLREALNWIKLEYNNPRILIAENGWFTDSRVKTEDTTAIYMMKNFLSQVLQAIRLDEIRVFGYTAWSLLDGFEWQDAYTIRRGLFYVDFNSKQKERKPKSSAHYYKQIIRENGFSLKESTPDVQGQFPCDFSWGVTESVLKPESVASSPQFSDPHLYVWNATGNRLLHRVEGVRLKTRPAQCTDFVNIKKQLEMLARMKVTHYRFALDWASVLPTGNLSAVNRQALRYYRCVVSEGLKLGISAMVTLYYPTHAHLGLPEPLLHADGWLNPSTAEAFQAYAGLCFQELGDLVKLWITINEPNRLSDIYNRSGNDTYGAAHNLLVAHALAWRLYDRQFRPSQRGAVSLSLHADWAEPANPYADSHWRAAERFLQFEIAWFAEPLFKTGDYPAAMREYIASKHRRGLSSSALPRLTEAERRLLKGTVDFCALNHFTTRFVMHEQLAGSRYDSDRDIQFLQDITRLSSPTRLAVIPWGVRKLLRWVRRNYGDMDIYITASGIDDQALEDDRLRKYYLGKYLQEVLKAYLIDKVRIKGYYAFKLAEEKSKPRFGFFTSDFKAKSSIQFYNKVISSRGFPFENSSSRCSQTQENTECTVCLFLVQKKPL
Kind of assay: BLI off-rate screening (Octet), crude supernatant.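 Also: supernatants tested at 25 µg/mL, dissociation from biosensors recorded in D-PBS with 0.1% BSA over 1800 s.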 On the technique in general: Biolayer interferometry detects binding as a change in optical thickness at a sensor tip.

Assay [1] addresses cell surface receptor composed of FGFR1c and co-receptor beta-Klotho (KLB) (human, UniProt P11362 22-822; Q86Z14 1-1044). Kind of assay: cell-based or functional assay.
For Mean E max, Luciferase reporter gene assay in this document: reference of the scale not given here.

cell surface receptor composed of FGFR1c and co-receptor beta-Klotho (KLB), sequence (P11362 22-822, chain 1 of 2): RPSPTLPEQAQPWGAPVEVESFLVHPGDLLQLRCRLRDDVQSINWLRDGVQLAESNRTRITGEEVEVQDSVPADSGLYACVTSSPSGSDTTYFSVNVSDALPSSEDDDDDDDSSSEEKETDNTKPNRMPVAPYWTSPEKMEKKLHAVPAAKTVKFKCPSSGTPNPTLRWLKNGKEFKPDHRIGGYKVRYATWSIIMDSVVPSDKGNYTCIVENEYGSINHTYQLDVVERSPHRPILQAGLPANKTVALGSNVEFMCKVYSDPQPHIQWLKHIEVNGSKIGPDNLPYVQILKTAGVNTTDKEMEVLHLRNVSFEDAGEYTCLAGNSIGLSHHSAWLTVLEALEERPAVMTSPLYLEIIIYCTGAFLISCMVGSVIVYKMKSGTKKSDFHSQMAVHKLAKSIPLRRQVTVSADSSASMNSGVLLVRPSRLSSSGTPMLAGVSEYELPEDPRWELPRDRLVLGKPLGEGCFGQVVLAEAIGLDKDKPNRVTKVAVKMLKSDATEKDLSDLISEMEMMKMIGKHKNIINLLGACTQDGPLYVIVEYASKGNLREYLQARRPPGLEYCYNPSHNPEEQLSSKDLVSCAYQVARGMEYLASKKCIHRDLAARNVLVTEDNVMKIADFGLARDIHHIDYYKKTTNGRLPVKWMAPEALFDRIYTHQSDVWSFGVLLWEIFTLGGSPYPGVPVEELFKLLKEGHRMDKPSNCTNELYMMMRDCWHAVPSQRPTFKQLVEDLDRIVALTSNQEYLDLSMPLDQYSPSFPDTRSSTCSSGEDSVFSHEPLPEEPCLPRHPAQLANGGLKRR
cell surface receptor composed of FGFR1c and co-receptor beta-Klotho (KLB), sequence (Q86Z14 whole entry, chain 2 of 2): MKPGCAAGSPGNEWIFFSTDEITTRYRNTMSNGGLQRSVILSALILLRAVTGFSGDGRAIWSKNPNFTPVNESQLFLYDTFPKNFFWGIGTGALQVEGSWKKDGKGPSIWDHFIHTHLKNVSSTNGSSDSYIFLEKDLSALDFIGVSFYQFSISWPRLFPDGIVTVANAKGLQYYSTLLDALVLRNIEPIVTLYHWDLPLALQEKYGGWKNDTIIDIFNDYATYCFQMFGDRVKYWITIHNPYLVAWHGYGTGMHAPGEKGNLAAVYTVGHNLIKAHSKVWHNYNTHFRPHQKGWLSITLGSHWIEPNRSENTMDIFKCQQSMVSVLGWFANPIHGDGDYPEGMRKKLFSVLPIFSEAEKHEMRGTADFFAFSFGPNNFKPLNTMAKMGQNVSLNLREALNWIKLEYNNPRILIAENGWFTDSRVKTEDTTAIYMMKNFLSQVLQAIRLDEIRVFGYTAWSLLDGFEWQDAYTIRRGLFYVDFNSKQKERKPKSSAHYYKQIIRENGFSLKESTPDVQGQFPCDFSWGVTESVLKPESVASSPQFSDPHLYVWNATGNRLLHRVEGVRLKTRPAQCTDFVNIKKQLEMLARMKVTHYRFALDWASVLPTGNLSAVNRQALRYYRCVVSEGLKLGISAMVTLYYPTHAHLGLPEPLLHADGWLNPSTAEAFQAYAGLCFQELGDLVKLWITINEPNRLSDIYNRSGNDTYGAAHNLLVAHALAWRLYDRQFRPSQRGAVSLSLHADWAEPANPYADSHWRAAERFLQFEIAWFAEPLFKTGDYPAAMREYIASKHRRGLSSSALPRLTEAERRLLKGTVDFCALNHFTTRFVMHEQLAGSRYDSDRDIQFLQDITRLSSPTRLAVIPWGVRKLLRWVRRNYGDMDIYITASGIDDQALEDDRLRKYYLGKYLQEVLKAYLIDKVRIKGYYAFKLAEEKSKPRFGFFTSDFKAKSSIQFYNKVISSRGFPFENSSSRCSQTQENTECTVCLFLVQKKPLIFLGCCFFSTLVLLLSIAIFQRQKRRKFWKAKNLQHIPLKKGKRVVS

B1: 16H7 light chain variant H33S (antibody, IgG4, V domains shown)
VH: not shown
VL: SYVLTQPPSVSVAPGQTARITCGGNNIGSESVSWYQQKPGQAPVLVVYDDSDRPSGIPERFSGSNSGNTATLTISRVEAGDEADYYCQVWDGNSDHVVFGGGTKLTVLG
notes: IgG4 backbone
B1 registered an off-rate (koff) with human beta-Klotho (KLB) of 4.6e-06 s⁻¹. For the same molecule, the “Mean E max, Luciferase reporter gene assay” value (“Mean E max” for short) in assay [1] stood at 103%.

B2: 16H7 light chain variant H33V (antibody, IgG4, V domains shown)
VH: not shown
VL: SYVLTQPPSVSVAPGQTARITCGGNNIGSESVVWYQQKPGQAPVLVVYDDSDRPSGIPERFSGSNSGNTATLTISRVEAGDEADYYCQVWDGNSDHVVFGGGTKLTVLG
notes: IgG4 backbone
For B2, the koff with human beta-Klotho (KLB) amounted to 0.00018 s⁻¹. Besides, in assay [1], the “Mean E max” value came to 104% and the “Mean EC50, Luciferase reporter gene assay” value (“Mean EC50” for short) turned out to be 0.147 nM.

B3: 16H7 light chain variant H33Y (antibody, IgG4, V domains shown)
VH: not shown
VL: SYVLTQPPSVSVAPGQTARITCGGNNIGSESVYWYQQKPGQAPVLVVYDDSDRPSGIPERFSGSNSGNTATLTISRVEAGDEADYYCQVWDGNSDHVVFGGGTKLTVLG
notes: IgG4 backbone
The molecule B3 gave a koff in the assay with human beta-Klotho (KLB) of 7.5e-05 s⁻¹. Moreover, in assay [1], the “Mean E max” value was 98% and the “Mean EC50” value came out at 0.12 nM.

B4: 16H7 light chain variant N93D (antibody, IgG4, V domains shown)
VH: not shown
VL: SYVLTQPPSVSVAPGQTARITCGGNNIGSESVHWYQQKPGQAPVLVVYDDSDRPSGIPERFSGSNSGNTATLTISRVEAGDEADYYCQVWDGDSDHVVFGGGTKLTVLG
notes: IgG4 backbone
Turning to B4, the koff with human beta-Klotho (KLB) was determined as 3.8e-05 s⁻¹. Moreover, in assay [1], the “Mean E max” value was found to be 108% and the “Mean EC50” value turned out to be 0.123 nM.

B5: 16H7 light chain variant H96E (antibody, IgG4, V domains shown)
VH: not shown
VL: SYVLTQPPSVSVAPGQTARITCGGNNIGSESVHWYQQKPGQAPVLVVYDDSDRPSGIPERFSGSNSGNTATLTISRVEAGDEADYYCQVWDGNSDEVVFGGGTKLTVLG
notes: IgG4 backbone
On to B5, for which, in the assay with human beta-Klotho (KLB), the koff was 1.1e-05 s⁻¹. In assay [1], the “Mean E max” value worked out at 100% and the “Mean EC50” value turned out to be 0.122 nM.

B6: 16H7 light chain variant N93A (antibody, IgG4, V domains shown)
VH: not shown
VL: SYVLTQPPSVSVAPGQTARITCGGNNIGSESVHWYQQKPGQAPVLVVYDDSDRPSGIPERFSGSNSGNTATLTISRVEAGDEADYYCQVWDGASDHVVFGGGTKLTVLG
notes: IgG4 backbone
For the molecule B6, the koff in the assay with human beta-Klotho (KLB) came to 7.5e-06 s⁻¹. In assay [1], the “Mean E max” value was determined as 101% and the “Mean EC50” value worked out at 0.108 nM.

B7: 16H7 light chain variant H96G (antibody, IgG4, V domains shown)
VH: not shown
VL: SYVLTQPPSVSVAPGQTARITCGGNNIGSESVHWYQQKPGQAPVLVVYDDSDRPSGIPERFSGSNSGNTATLTISRVEAGDEADYYCQVWDGNSDGVVFGGGTKLTVLG
notes: IgG4 backbone
Take B7: in the assay with human beta-Klotho (KLB), the koff is 0.00015 s⁻¹. In assay [1], the “Mean E max” value was found to be 95% and the “Mean EC50” value amounted to 0.13 nM.

B8: 16H7 light chain variant H96L (antibody, IgG4, V domains shown)
VH: not shown
VL: SYVLTQPPSVSVAPGQTARITCGGNNIGSESVHWYQQKPGQAPVLVVYDDSDRPSGIPERFSGSNSGNTATLTISRVEAGDEADYYCQVWDGNSDLVVFGGGTKLTVLG
notes: IgG4 backbone
On to B8, for which, in the assay with human beta-Klotho (KLB), the koff turned out to be 0.00013 s⁻¹. In assay [1], the “Mean E max” value was 98% and the “Mean EC50” value turned out to be 0.176 nM.

B9: 16H7 light chain variant H96S (antibody, IgG4, V domains shown)
VH: not shown
VL: SYVLTQPPSVSVAPGQTARITCGGNNIGSESVHWYQQKPGQAPVLVVYDDSDRPSGIPERFSGSNSGNTATLTISRVEAGDEADYYCQVWDGNSDSVVFGGGTKLTVLG
notes: IgG4 backbone
In the case of B9, in the assay with human beta-Klotho (KLB), the off-rate constant (koff) amounted to 3e-05 s⁻¹. In addition, in assay [1], the “Mean E max” value was 102% and the “Mean EC50” value was found to be 0.097 nM.

B10: 16H7 light chain variant N93F (antibody, IgG4, V domains shown)
VH: not shown
VL: SYVLTQPPSVSVAPGQTARITCGGNNIGSESVHWYQQKPGQAPVLVVYDDSDRPSGIPERFSGSNSGNTATLTISRVEAGDEADYYCQVWDGFSDHVVFGGGTKLTVLG
notes: IgG4 backbone
Molecule B10 registered a koff in the assay with human beta-Klotho (KLB) of 2.2e-06 s⁻¹. In assay [1], the “Mean E max” value was determined as 100% and the “Mean EC50” value was 0.165 nM.

B11: 16H7 light chain variant H96R (antibody, IgG4, V domains shown)
VH: not shown
VL: SYVLTQPPSVSVAPGQTARITCGGNNIGSESVHWYQQKPGQAPVLVVYDDSDRPSGIPERFSGSNSGNTATLTISRVEAGDEADYYCQVWDGNSDRVVFGGGTKLTVLG
notes: IgG4 backbone
For the molecule B11, in the assay with human beta-Klotho (KLB), the koff was found to be 0.00014 s⁻¹. In assay [1], the “Mean E max” value worked out at 102% and the “Mean EC50” value was 0.095 nM.

B12: 16H7 light chain variant H96W (antibody, IgG4, V domains shown)
VH: not shown
VL: SYVLTQPPSVSVAPGQTARITCGGNNIGSESVHWYQQKPGQAPVLVVYDDSDRPSGIPERFSGSNSGNTATLTISRVEAGDEADYYCQVWDGNSDWVVFGGGTKLTVLG
notes: IgG4 backbone
B12 gave an off-rate constant (koff) with human beta-Klotho (KLB) of 0.00012 s⁻¹. In assay [1], the “Mean E max” value came to 103% and the “Mean EC50” value was 0.155 nM.

B13: 16H7 light chain variant H96Y (antibody, IgG4, V domains shown)
VH: not shown
VL: SYVLTQPPSVSVAPGQTARITCGGNNIGSESVHWYQQKPGQAPVLVVYDDSDRPSGIPERFSGSNSGNTATLTISRVEAGDEADYYCQVWDGNSDYVVFGGGTKLTVLG
notes: IgG4 backbone
Take B13: in the assay with human beta-Klotho (KLB), the koff amounted to 6.9e-05 s⁻¹. For the same molecule, in assay [1], the “Mean E max” value was determined as 103% and the “Mean EC50” value is 0.134 nM.

B14: 16H7 light chain variant H96T (antibody, IgG4, V domains shown)
VH: not shown
VL: SYVLTQPPSVSVAPGQTARITCGGNNIGSESVHWYQQKPGQAPVLVVYDDSDRPSGIPERFSGSNSGNTATLTISRVEAGDEADYYCQVWDGNSDTVVFGGGTKLTVLG
notes: IgG4 backbone
The molecule B14 gave a dissociation rate constant (koff) with human beta-Klotho (KLB) of 1.8e-05 s⁻¹. In assay [1], the “Mean E max” value came out at 110% and the “Mean EC50” value worked out at 0.11 nM.

B15: 16H7 light chain variant H96D (antibody, IgG4, V domains shown)
VH: not shown
VL: SYVLTQPPSVSVAPGQTARITCGGNNIGSESVHWYQQKPGQAPVLVVYDDSDRPSGIPERFSGSNSGNTATLTISRVEAGDEADYYCQVWDGNSDDVVFGGGTKLTVLG
notes: IgG4 backbone
For the molecule B15, the koff with human beta-Klotho (KLB) came out at 2.2e-05 s⁻¹. In addition, in assay [1], the “Mean E max” value came to 100% and the “Mean EC50” value was 0.111 nM.

B16: 16H7 light chain variant H96V (antibody, IgG4, V domains shown)
VH: not shown
VL: SYVLTQPPSVSVAPGQTARITCGGNNIGSESVHWYQQKPGQAPVLVVYDDSDRPSGIPERFSGSNSGNTATLTISRVEAGDEADYYCQVWDGNSDVVVFGGGTKLTVLG
notes: IgG4 backbone
As to B16, the off-rate constant (koff) with human beta-Klotho (KLB) was 4.1e-05 s⁻¹. For the same molecule, in assay [1], the “Mean E max” value came out at 91% and the “Mean EC50” value came out at 0.13 nM.

B17: 16H7 light chain variant H33T (antibody, IgG4, V domains shown)
VH: not shown
VL: SYVLTQPPSVSVAPGQTARITCGGNNIGSESVTWYQQKPGQAPVLVVYDDSDRPSGIPERFSGSNSGNTATLTISRVEAGDEADYYCQVWDGNSDHVVFGGGTKLTVLG
notes: IgG4 backbone
B17 had a koff with human beta-Klotho (KLB) of 0.00014 s⁻¹. In assay [1], the “Mean E max” value stood at 99% and the “Mean EC50” value was 0.114 nM.

B18: 16H7 light chain variant N93C (antibody, IgG4, V domains shown)
VH: not shown
VL: SYVLTQPPSVSVAPGQTARITCGGNNIGSESVHWYQQKPGQAPVLVVYDDSDRPSGIPERFSGSNSGNTATLTISRVEAGDEADYYCQVWDGCSDHVVFGGGTKLTVLG
notes: IgG4 backbone
As to B18, the koff in the assay with human beta-Klotho (KLB) is 5.8e-05 s⁻¹. Moreover, in assay [1], the “Mean E max” value stood at 107% and the “Mean EC50” value amounted to 0.148 nM.

B19: 16H7 light chain variant H96Q (antibody, IgG4, V domains shown)
VH: not shown
VL: SYVLTQPPSVSVAPGQTARITCGGNNIGSESVHWYQQKPGQAPVLVVYDDSDRPSGIPERFSGSNSGNTATLTISRVEAGDEADYYCQVWDGNSDQVVFGGGTKLTVLG
notes: IgG4 backbone
B19 returned a koff in the assay with human beta-Klotho (KLB) of 5e-05 s⁻¹. Moreover, in assay [1], the “Mean E max” value turned out to be 104% and the “Mean EC50” value is 0.106 nM.

B20: 16H7 light chain variant H96N (antibody, IgG4, V domains shown)
VH: not shown
VL: SYVLTQPPSVSVAPGQTARITCGGNNIGSESVHWYQQKPGQAPVLVVYDDSDRPSGIPERFSGSNSGNTATLTISRVEAGDEADYYCQVWDGNSDNVVFGGGTKLTVLG
notes: IgG4 backbone
Turning to B20, in the assay with human beta-Klotho (KLB), the off-rate (koff) was determined as 4.4e-05 s⁻¹. In addition, in assay [1], the “Mean E max” value was 112% and the “Mean EC50” value came out at 0.143 nM.

B21: 16H7 light chain variant H96K (antibody, IgG4, V domains shown)
VH: not shown
VL: SYVLTQPPSVSVAPGQTARITCGGNNIGSESVHWYQQKPGQAPVLVVYDDSDRPSGIPERFSGSNSGNTATLTISRVEAGDEADYYCQVWDGNSDKVVFGGGTKLTVLG
notes: IgG4 backbone
As for B21, the off-rate constant (koff) with human beta-Klotho (KLB) was 6.4e-05 s⁻¹. Also, in assay [1], the “Mean E max” value was 98% and the “Mean EC50” value stood at 0.179 nM.

What is called koff is a measure of how fast the partners let go of each other. Low readings indicate slow dissociation, high ones fast dissociation.

For the origin of these results see US20220010021A1 (Sanofi, published 2022).
